The Kd is the free concentration of one partner at which half of the binding sites on the other are occupied at equilibrium, for simple one-to-one binding. A higher Kd goes with weaker binding.

Several values for one entry are separate records, joined by “and”; a condition that tells them apart may be missing. Equal values may be shown once.

Kd data for one molecule are collected here from PMC3856898 (FEBS letters, 2013).

In assay [1] the target is T1, Nrp1 cytoplasmic domain (UniProt P97333 880-923). As to the kind of experiment: ITC. A general note: In ITC the heat of successive injections is recorded.
For assay [2], the target named is T1, Nrp1 cytoplasmic domain. As to the kind of experiment: SPR.

T1 sequence (P97333 880-923): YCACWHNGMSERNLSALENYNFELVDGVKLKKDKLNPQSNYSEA

B1: FlnA repeats 23-24 (domain or fragment)
chain: GHGGDPGLVSAYGAGLEGGVTGNPAEFVVNTSNAGAGALSVTIDGPSKVKMDCQECPEGYRVTYTPMAPGSYLISIKYGGPYHIGGSPFKAKVTGPRLVSNHSLHETSSVFVDSLTKATCAPQHGAPGPGPADASKVVAKGLGLSKAYVGQKSSFTVDCSKAGNNMLLVGVHGPRTPCEEILVKHVGSRLYSVSYLLKDKGEYTLVVKWGDEHIPGSPYRVVVP
With B1, the Kd with Nrp1 cytoplasmic domain [1] was 12.1 µM and 12.9 µM; in the assay with Nrp1 cytoplasmic domain [2], 9.6 ± 1.2 µM.
